Data as given in paper doi:10.1101/2021.01.27.428466 (bioRxiv, 2021).

Target: T1, receptor-binding domain (RBD) of the spike protein of SARS-CoV-2 (SARS-CoV-2, UniProt P0DTC2)
T1 construct: also called re-engineered RBD
Experiment: SEC
Conditions: both partners purified

B1: Sb16 (VHH)
VHH: QVQLVESGGGLVQAGGSLRLSCAASGFPVAYKTMWWYRQAPGKEREWVAAIESYGIKWTRYADSVKGRFTISRDNAKNTVYLQMNSLKPEDTAVYYCIVWVGAQYHGQGTQVTVSA
  binding result: binds
